Test results: the Human Domainome abundance scans (Beltran et al. 2025)
± gives the uncertainty stated by the source.

B1: POU domain, class 4, transcription factor 1, residues 266 to 347; numbered along this chain, Q01851 (parent)
chain: RELEAFAERFKQRRIKLGVTQADVGSALANLKIPGVGSLSQSTICRFESLTLSHNNMIALKPILQAWLEEAEGAQREKMNKP

Variants of: B1
Assay: abundance fitness (aPCA) (normalised: wild type 0, dead -1); higher = more abundant; growth selection in yeast, the domain comes from the species named
Details: Homo sapiens

First: L52K
Second: L52V
The abundance fitness of the first is lower: -1.28 ± 0.27 for the first, -0.588 ± 0.07 for the second.

Going from L52D to L50K, the abundance fitness rises from -0.229 ± 0.084 to 0.029 ± 0.049.

First: L50A
Second: L50D
The abundance fitness of the first is higher: 0.031 ± 0.032 for the first, -0.425 ± 0.053 for the second.

M57P and M57D are within error of each other in abundance fitness: -0.606 ± 0.11 for the first, -0.935 ± 0.31 for the second.

Going from M57I to M57T, the abundance fitness falls from -0.16 ± 0.099 to -0.374 ± 0.062.

M57V and K11N are within error of each other in abundance fitness: -0.273 ± 0.041 for the first, -0.422 ± 0.22 for the second.

K11G and K11L are within error of each other in abundance fitness: -0.465 ± 0.061 for the first, -0.406 ± 0.074 for the second.

R76L and R76V are within error of each other in abundance fitness: 0.012 ± 0.023 for the first, -0.009 ± 0.023 for the second.

R76T and R76D are within error of each other in abundance fitness: 0.008 ± 0.034 for the first, -0.015 ± 0.039 for the second.

Going from R76A to F6P, the abundance fitness falls from 0.03 ± 0.025 to -0.951 ± 0.071.

First: F6D
Second: F6S
The abundance fitness of the first is higher: -0.442 ± 0.041 for the first, -0.516 ± 0.032 for the second.

Going from F6T to F6V, the abundance fitness rises from -0.452 ± 0.037 to -0.378 ± 0.026.

L31P and L31N are within error of each other in abundance fitness: -0.26 ± 0.045 for the first, -0.168 ± 0.061 for the second.

E77V and E77D are within error of each other in abundance fitness: -0.005 ± 0.029 for the first, 0.006 ± 0.051 for the second.

First: E77M
Second: I44S
The abundance fitness of the first is higher: 0.021 ± 0.042 for the first, -0.68 ± 0.12 for the second.

I44G and I44R are within error of each other in abundance fitness: -1 ± 0.093 for the first, -0.999 ± 0.12 for the second.

I44P and I44N are within error of each other in abundance fitness: -0.864 ± 0.22 for the first, -0.516 ± 0.23 for the second.

I44W and I44F are within error of each other in abundance fitness: -0.827 ± 0.12 for the first, -0.726 ± 0.2 for the second.

S40P and S40Y are within error of each other in abundance fitness: -0.15 ± 0.066 for the first, -0.307 ± 0.24 for the second.

S40H and S40V are within error of each other in abundance fitness: -0.159 ± 0.16 for the first, -0.331 ± 0.055 for the second.

S40A and S40N are within error of each other in abundance fitness: -0.129 ± 0.053 for the first, -0.05 ± 0.1 for the second.

S40Q and A59E are within error of each other in abundance fitness: -0.072 ± 0.075 for the first, -0.026 ± 0.044 for the second.

A59K and A59I are within error of each other in abundance fitness: 0.035 ± 0.079 for the first, -0.021 ± 0.12 for the second.

First: A59P
Second: A59R
The abundance fitness of the first is lower: -0.368 ± 0.1 for the first, -0.051 ± 0.037 for the second.

A59V and N55T are within error of each other in abundance fitness: 0.011 ± 0.04 for the first, 0.034 ± 0.067 for the second.

N55L and N55F are within error of each other in abundance fitness: -0.016 ± 0.052 for the first, -0.18 ± 0.12 for the second.

Going from N55P to E70R, the abundance fitness falls from 0.104 ± 0.074 to -0.046 ± 0.022.

First: E70S
Second: E70P
The abundance fitness of the first is higher: -0.006 ± 0.03 for the first, -0.657 ± 0.052 for the second.

Compared with E70F, V24S is lower in abundance fitness: -0.198 ± 0.044 for the first, -0.688 ± 0.1 for the second.

V24M and V24C are within error of each other in abundance fitness: -0.253 ± 0.079 for the first, -0.326 ± 0.1 for the second.

V24P and V24H are within error of each other in abundance fitness: -1.06 ± 0.23 for the first, -0.815 ± 0.37 for the second.

Compared with V24N, P34E is higher in abundance fitness: -0.531 ± 0.27 for the first, 0.027 ± 0.033 for the second.

G73N and G73E are within error of each other in abundance fitness: 0.003 ± 0.15 for the first, 0.125 ± 0.054 for the second.

K61S and K61V are within error of each other in abundance fitness: -0.149 ± 0.047 for the first, -0.105 ± 0.046 for the second.

Going from K61E to K61T, the abundance fitness falls from -0.022 ± 0.056 to -0.132 ± 0.053.

First: K61L
Second: K61A
The abundance fitness of the first is lower: -0.198 ± 0.046 for the first, -0.074 ± 0.043 for the second.

K78M and K78Y are within error of each other in abundance fitness: 0.072 ± 0.09 for the first, -0.106 ± 0.23 for the second.

S38R and S38E are within error of each other in abundance fitness: 0.048 ± 0.096 for the first, 0.016 ± 0.083 for the second.

S38L and S38P are within error of each other in abundance fitness: -0.11 ± 0.11 for the first, -0.112 ± 0.14 for the second.

P82Q and P82E are within error of each other in abundance fitness: 0.01 ± 0.071 for the first, -0.005 ± 0.12 for the second.

P82V and L39M are within error of each other in abundance fitness: -0.053 ± 0.095 for the first, 0.01 ± 0.059 for the second.

Going from L39D to L39K, the abundance fitness falls from -0.231 ± 0.09 to -0.409 ± 0.08.

First: L39R
Second: L39H
The abundance fitness of the first is lower: -0.487 ± 0.044 for the first, -0.113 ± 0.26 for the second.

L39Q and L39Y are within error of each other in abundance fitness: -0.368 ± 0.085 for the first, -0.277 ± 0.11 for the second.

M79Q and M79T are within error of each other in abundance fitness: -0.03 ± 0.033 for the first, -0.021 ± 0.032 for the second.

M79P and M79W are within error of each other in abundance fitness: 0.029 ± 0.033 for the first, -0.015 ± 0.026 for the second.

M79V and Q41M are within error of each other in abundance fitness: 0.007 ± 0.024 for the first, -0.074 ± 0.064 for the second.

Q41F and Q41T are within error of each other in abundance fitness: 0.084 ± 0.095 for the first, -0.055 ± 0.062 for the second.

Q41P and K32D are within error of each other in abundance fitness: 0.104 ± 0.091 for the first, 0.022 ± 0.17 for the second.

K32E and K32S are within error of each other in abundance fitness: 0.016 ± 0.13 for the first, 0.106 ± 0.096 for the second.

K32L and K32F are within error of each other in abundance fitness: -0.105 ± 0.064 for the first, 0.031 ± 0.26 for the second.

K32I and K32A are within error of each other in abundance fitness: -0.165 ± 0.21 for the first, -0.003 ± 0.078 for the second.

Compared with C45R, C45P is lower in abundance fitness: 0.056 ± 0.04 for the first, -0.18 ± 0.075 for the second.

C45K and C45S are within error of each other in abundance fitness: 0.035 ± 0.058 for the first, 0.079 ± 0.047 for the second.

L60A and K81V are within error of each other in abundance fitness: -0.344 ± 0.24 for the first, -0.047 ± 0.059 for the second.

K81S and K81C are within error of each other in abundance fitness: -0.016 ± 0.063 for the first, 0.1 ± 0.15 for the second.

K81P and R1L are within error of each other in abundance fitness: -0.075 ± 0.14 for the first, -0.084 ± 0.059 for the second.

R1C and R1G are within error of each other in abundance fitness: -0.053 ± 0.038 for the first, -0.05 ± 0.023 for the second.

R1T and V19W are within error of each other in abundance fitness: -0.011 ± 0.04 for the first, -0.016 ± 0.057 for the second.

V19T and G37D are within error of each other in abundance fitness: -0.125 ± 0.068 for the first, -0.092 ± 0.052 for the second.

Going from G37A to G37R, the abundance fitness falls from -0.045 ± 0.028 to -0.115 ± 0.025.

Compared with G37Q, G37P is higher in abundance fitness: -0.121 ± 0.042 for the first, -0.016 ± 0.04 for the second.

E8F and L3H are within error of each other in abundance fitness: -0.223 ± 0.12 for the first, -0.203 ± 0.12 for the second.

Going from L3F to L3Q, the abundance fitness falls from -0.103 ± 0.065 to -0.262 ± 0.052.

Q12D and Q12H are within error of each other in abundance fitness: -0.027 ± 0.047 for the first, -0.097 ± 0.042 for the second.

Compared with Q12R, Q12G is lower in abundance fitness: -0.14 ± 0.028 for the first, -0.205 ± 0.029 for the second.

First: Q12M
Second: Q12W
The abundance fitness of the first is higher: -0.034 ± 0.039 for the first, -0.339 ± 0.037 for the second.

First: A5P
Second: A5Y
The abundance fitness of the first is lower: -0.451 ± 0.1 for the first, -0.171 ± 0.11 for the second.

T20N and T20A are within error of each other in abundance fitness: -0.261 ± 0.44 for the first, -0.052 ± 0.14 for the second.

Compared with T20I, T43L is higher in abundance fitness: -0.725 ± 0.21 for the first, 0.053 ± 0.056 for the second.

First: T43H
Second: T43R
The abundance fitness of the first is higher: 0.063 ± 0.12 for the first, -0.483 ± 0.06 for the second.

Going from T43S to T43P, the abundance fitness falls from -0.109 ± 0.061 to -0.606 ± 0.14.

Compared with A66W, A74T is higher in abundance fitness: -0.192 ± 0.031 for the first, -0.013 ± 0.033 for the second.

A74D and A74F are within error of each other in abundance fitness: -0.027 ± 0.039 for the first, -0.035 ± 0.036 for the second.

A74L and A74V are within error of each other in abundance fitness: 0.006 ± 0.026 for the first, -0.005 ± 0.025 for the second.

First: P62S
Second: P62F
The abundance fitness of the first is higher: -0.243 ± 0.069 for the first, -0.518 ± 0.11 for the second.

P62A and P62Y are within error of each other in abundance fitness: -0.366 ± 0.053 for the first, -0.562 ± 0.21 for the second.

First: N56P
Second: N56H
The abundance fitness of the first is lower: -0.301 ± 0.094 for the first, 0.004 ± 0.091 for the second.

N56S and N56G are within error of each other in abundance fitness: 0.046 ± 0.052 for the first, -0.023 ± 0.033 for the second.

N56D and N56W are within error of each other in abundance fitness: -0.018 ± 0.075 for the first, -0.062 ± 0.049 for the second.

Compared with N56C, R13I is lower in abundance fitness: 0.145 ± 0.092 for the first, -0.09 ± 0.064 for the second.

R13N and R13V are within error of each other in abundance fitness: -0.156 ± 0.062 for the first, -0.065 ± 0.035 for the second.

R13D and R13F are within error of each other in abundance fitness: -0.253 ± 0.061 for the first, -0.203 ± 0.066 for the second.

R13P showed an abundance fitness of -1.06 ± 0.2.
